# Experimental data taken from PMC3864932, “Identification of Crucial Amino Acids in Mouse Aldehyde Oxidase 3 That Determine Substrate Specificity” (PLoS ONE, 2013).
# B1: mAOX3 (mouse aldehyde oxidase 3) (Mus musculus; A807E/D878L/F776K/G1013S/K1016V/K889H/L881S/P1015T/S1011G/V1012I/Y1019L/Y1020N/Y885R) (protein)
# chain: MSPSKESDELIFFVNGKKVTERNADPEVNLLFYLRKVIRLTGTKYGCGGGDCGACTVMISRYDPISKRISHFSATACLVPICSLHGAAVTTVEGIGSTKTRIHPVQERIAKGHGTQCGFCTPGMVMSIYTLLRNHPEPSTEQIMETLGGNLCRCTGYRPIVESAKSFCPSSTCCQMNGEGKCCLDEEKNEPERKNSVCTKLYEKKEFQPLDPTQELIFPPELMRMAEESQNTVLTFRGERTTWIAPGTLNDLLELKMKHPSAPLVIGNTYLGLHMKFTDVSYPIIISPARILELFVVTNTKQGLTLGAGLSLTQVKNVLSDVVSRLPKEKTQIYCALLKQLKTLAGQQIRNVASLGGHIISRLPTSDLNPILGIGNCILNVASTEGIQQIPLNDHFLAGVPDAILKPEQVLISVFVPRSSKWEFVSAFRQAPRQQNAFATVNAGMKVVFKEDTNTITDLGILYGGIGATVISADKSCRQLIGRCWDEEMLDDAGKMICEEVSLLMAAPGGMEEYRKTLAISFLFMFYLDVLKQLKTRDPHKYPDISQKLLHILEDFPLTMPYGMQSFQDVDFQQPLQDPIGRPIMHQSGIKHATGEAVFCDDMSVLPGELFLAVVTSSKSHAKIISLDASEALASLGVVDVVTARDVPGDNGREEESLYAQDEVICVGQIVCAVAADSYAHAQQAAKKVKIVYQDIEPMIVTVQDALQYESFIGPERKLEQGNVEEAFQCADQILEGEVHLGGQEHFYMETQSVRVVPKGEDKEMDIYVSSQDAAKTQEMVARTLGIPKNRINCHVKRVGGAFGGKESKPGLLASVAAVAAQKTGRPIRFILERRDDMLITGGRHPLLGKYKIGFMNNGKIKAADIQLYINGGCTPDLSESVIERALLHLENAYKIPNLRVRGRVCKTNLPSNTAFRGFGFPQGAFVTETCMSAVAAKCRLPPEKVRELNMYRTIDRTIHNQEFDPTNLLQCWEACVENSSYYNRKKAVDEFNQQRFWKKRGIAIIPMKFGISFTVTFLNQAAALVQIYTDGSVLVAHGGVELGQGINTKMIQVASRELKIPMSYIHLDEMSTVTVPNTVTTGASTGADVNGRAVQNACQILMKRLEPIIKQNPSGTWEEWVKEAFVQSISLSATGYFRGYQADMDWEKGEGDIFPYFVFGAACSEVEIDCLTGAHKNIRTDIVMDGSFSINPAVDIGQIEGAFVQGLGLYTLEELKYSPEGVLYTRGPHQYKIASVTDIPEEFHVSLLTPTPNPKAIYSSKGLGEAGTFLGCSVFFAIAAAVAAAREERGLSPIWAINSPATAEVIRMACEDQFTNLVPQTDSKCCKPWSIPVA
# notes: N-terminal His6-tag, full length, plasmid pMMA1, expressed in E. coli; homodimer with Moco, two [2Fe-2S], FAD
# B2: mAOX3 (mouse aldehyde oxidase 3) (Mus musculus; F1014I) (protein)
# chain: MSPSKESDELIFFVNGKKVTERNADPEVNLLFYLRKVIRLTGTKYGCGGGDCGACTVMISRYDPISKRISHFSATACLVPICSLHGAAVTTVEGIGSTKTRIHPVQERIAKGHGTQCGFCTPGMVMSIYTLLRNHPEPSTEQIMETLGGNLCRCTGYRPIVESAKSFCPSSTCCQMNGEGKCCLDEEKNEPERKNSVCTKLYEKKEFQPLDPTQELIFPPELMRMAEESQNTVLTFRGERTTWIAPGTLNDLLELKMKHPSAPLVIGNTYLGLHMKFTDVSYPIIISPARILELFVVTNTKQGLTLGAGLSLTQVKNVLSDVVSRLPKEKTQIYCALLKQLKTLAGQQIRNVASLGGHIISRLPTSDLNPILGIGNCILNVASTEGIQQIPLNDHFLAGVPDAILKPEQVLISVFVPRSSKWEFVSAFRQAPRQQNAFATVNAGMKVVFKEDTNTITDLGILYGGIGATVISADKSCRQLIGRCWDEEMLDDAGKMICEEVSLLMAAPGGMEEYRKTLAISFLFMFYLDVLKQLKTRDPHKYPDISQKLLHILEDFPLTMPYGMQSFQDVDFQQPLQDPIGRPIMHQSGIKHATGEAVFCDDMSVLPGELFLAVVTSSKSHAKIISLDASEALASLGVVDVVTARDVPGDNGREEESLYAQDEVICVGQIVCAVAADSYAHAQQAAKKVKIVYQDIEPMIVTVQDALQYESFIGPERKLEQGNVEEAFQCADQILEGEVHLGGQEHFYMETQSVRVVPKGEDKEMDIYVSSQDAAFTQEMVARTLGIPKNRINCHVKRVGGAFGGKASKPGLLASVAAVAAQKTGRPIRFILERRDDMLITGGRHPLLGKYKIGFMNNGKIKAADIQLYINGGCTPDDSELVIEYALLKLENAYKIPNLRVRGRVCKTNLPSNTAFRGFGFPQGAFVTETCMSAVAAKCRLPPEKVRELNMYRTIDRTIHNQEFDPTNLLQCWEACVENSSYYNRKKAVDEFNQQRFWKKRGIAIIPMKFSVGIPKTFYYQAAALVQIYTDGSVLVAHGGVELGQGINTKMIQVASRELKIPMSYIHLDEMSTVTVPNTVTTGASTGADVNGRAVQNACQILMKRLEPIIKQNPSGTWEEWVKEAFVQSISLSATGYFRGYQADMDWEKGEGDIFPYFVFGAACSEVEIDCLTGAHKNIRTDIVMDGSFSINPAVDIGQIEGAFVQGLGLYTLEELKYSPEGVLYTRGPHQYKIASVTDIPEEFHVSLLTPTPNPKAIYSSKGLGEAGTFLGCSVFFAIAAAVAAAREERGLSPIWAINSPATAEVIRMACEDQFTNLVPQTDSKCCKPWSIPVA
# notes: as for B1
# B3: mAOX3 (mouse aldehyde oxidase 3) (Mus musculus; A807E/D878L/F776K/L881S/P1015T/Y1019L/Y885R) (protein)
# chain: MSPSKESDELIFFVNGKKVTERNADPEVNLLFYLRKVIRLTGTKYGCGGGDCGACTVMISRYDPISKRISHFSATACLVPICSLHGAAVTTVEGIGSTKTRIHPVQERIAKGHGTQCGFCTPGMVMSIYTLLRNHPEPSTEQIMETLGGNLCRCTGYRPIVESAKSFCPSSTCCQMNGEGKCCLDEEKNEPERKNSVCTKLYEKKEFQPLDPTQELIFPPELMRMAEESQNTVLTFRGERTTWIAPGTLNDLLELKMKHPSAPLVIGNTYLGLHMKFTDVSYPIIISPARILELFVVTNTKQGLTLGAGLSLTQVKNVLSDVVSRLPKEKTQIYCALLKQLKTLAGQQIRNVASLGGHIISRLPTSDLNPILGIGNCILNVASTEGIQQIPLNDHFLAGVPDAILKPEQVLISVFVPRSSKWEFVSAFRQAPRQQNAFATVNAGMKVVFKEDTNTITDLGILYGGIGATVISADKSCRQLIGRCWDEEMLDDAGKMICEEVSLLMAAPGGMEEYRKTLAISFLFMFYLDVLKQLKTRDPHKYPDISQKLLHILEDFPLTMPYGMQSFQDVDFQQPLQDPIGRPIMHQSGIKHATGEAVFCDDMSVLPGELFLAVVTSSKSHAKIISLDASEALASLGVVDVVTARDVPGDNGREEESLYAQDEVICVGQIVCAVAADSYAHAQQAAKKVKIVYQDIEPMIVTVQDALQYESFIGPERKLEQGNVEEAFQCADQILEGEVHLGGQEHFYMETQSVRVVPKGEDKEMDIYVSSQDAAKTQEMVARTLGIPKNRINCHVKRVGGAFGGKESKPGLLASVAAVAAQKTGRPIRFILERRDDMLITGGRHPLLGKYKIGFMNNGKIKAADIQLYINGGCTPDLSESVIERALLKLENAYKIPNLRVRGRVCKTNLPSNTAFRGFGFPQGAFVTETCMSAVAAKCRLPPEKVRELNMYRTIDRTIHNQEFDPTNLLQCWEACVENSSYYNRKKAVDEFNQQRFWKKRGIAIIPMKFSVGFTKTFLYQAAALVQIYTDGSVLVAHGGVELGQGINTKMIQVASRELKIPMSYIHLDEMSTVTVPNTVTTGASTGADVNGRAVQNACQILMKRLEPIIKQNPSGTWEEWVKEAFVQSISLSATGYFRGYQADMDWEKGEGDIFPYFVFGAACSEVEIDCLTGAHKNIRTDIVMDGSFSINPAVDIGQIEGAFVQGLGLYTLEELKYSPEGVLYTRGPHQYKIASVTDIPEEFHVSLLTPTPNPKAIYSSKGLGEAGTFLGCSVFFAIAAAVAAAREERGLSPIWAINSPATAEVIRMACEDQFTNLVPQTDSKCCKPWSIPVA
# notes: as for B1
# B4: mAOX3 (mouse aldehyde oxidase 3) (Mus musculus; A807E/D878L/F776K/K889H/L881S/P1015T/Y1019L/Y885R) (protein)
# chain: MSPSKESDELIFFVNGKKVTERNADPEVNLLFYLRKVIRLTGTKYGCGGGDCGACTVMISRYDPISKRISHFSATACLVPICSLHGAAVTTVEGIGSTKTRIHPVQERIAKGHGTQCGFCTPGMVMSIYTLLRNHPEPSTEQIMETLGGNLCRCTGYRPIVESAKSFCPSSTCCQMNGEGKCCLDEEKNEPERKNSVCTKLYEKKEFQPLDPTQELIFPPELMRMAEESQNTVLTFRGERTTWIAPGTLNDLLELKMKHPSAPLVIGNTYLGLHMKFTDVSYPIIISPARILELFVVTNTKQGLTLGAGLSLTQVKNVLSDVVSRLPKEKTQIYCALLKQLKTLAGQQIRNVASLGGHIISRLPTSDLNPILGIGNCILNVASTEGIQQIPLNDHFLAGVPDAILKPEQVLISVFVPRSSKWEFVSAFRQAPRQQNAFATVNAGMKVVFKEDTNTITDLGILYGGIGATVISADKSCRQLIGRCWDEEMLDDAGKMICEEVSLLMAAPGGMEEYRKTLAISFLFMFYLDVLKQLKTRDPHKYPDISQKLLHILEDFPLTMPYGMQSFQDVDFQQPLQDPIGRPIMHQSGIKHATGEAVFCDDMSVLPGELFLAVVTSSKSHAKIISLDASEALASLGVVDVVTARDVPGDNGREEESLYAQDEVICVGQIVCAVAADSYAHAQQAAKKVKIVYQDIEPMIVTVQDALQYESFIGPERKLEQGNVEEAFQCADQILEGEVHLGGQEHFYMETQSVRVVPKGEDKEMDIYVSSQDAAKTQEMVARTLGIPKNRINCHVKRVGGAFGGKESKPGLLASVAAVAAQKTGRPIRFILERRDDMLITGGRHPLLGKYKIGFMNNGKIKAADIQLYINGGCTPDLSESVIERALLHLENAYKIPNLRVRGRVCKTNLPSNTAFRGFGFPQGAFVTETCMSAVAAKCRLPPEKVRELNMYRTIDRTIHNQEFDPTNLLQCWEACVENSSYYNRKKAVDEFNQQRFWKKRGIAIIPMKFSVGFTKTFLYQAAALVQIYTDGSVLVAHGGVELGQGINTKMIQVASRELKIPMSYIHLDEMSTVTVPNTVTTGASTGADVNGRAVQNACQILMKRLEPIIKQNPSGTWEEWVKEAFVQSISLSATGYFRGYQADMDWEKGEGDIFPYFVFGAACSEVEIDCLTGAHKNIRTDIVMDGSFSINPAVDIGQIEGAFVQGLGLYTLEELKYSPEGVLYTRGPHQYKIASVTDIPEEFHVSLLTPTPNPKAIYSSKGLGEAGTFLGCSVFFAIAAAVAAAREERGLSPIWAINSPATAEVIRMACEDQFTNLVPQTDSKCCKPWSIPVA
# notes: as for B1
# Columns and labels:
# Assay in all cases: purified protein
# Type in all cases: biochemical, Mus musculus
# Settings in all cases: 100 µM DCPIP as electron acceptor, 50 mM Tris-HCl pH 8.0, 1 mM EDTA, 37 °C, kcat corrected for Mo content
# purified protein [1] = substrate: O=c1[nH]cnc2nc[nH]c12
# purified protein [2] = substrate: Oc1ncnc2[nH]ncc12
# purified protein [3] = substrate: O=Cc1ccccc1
Protein,Km (purified protein [1]),kcat (purified protein [1]),kcat/Km (purified protein [1]),Km (purified protein [2]),kcat (purified protein [2]),kcat/Km (purified protein [2]),Km (purified protein [3]),kcat (purified protein [3]),kcat/Km (purified protein [3])
B1,1736 ± 155 µM,0.0833 s⁻¹,47.8 ± 5.83 M⁻¹ s⁻¹,620 ± 16 µM,0.65 ± 0.05 s⁻¹,1050 ± 83.3 M⁻¹ s⁻¹,,,
B2,,,,,,,22.7 ± 2.7 µM,0.317 ± 0.05 s⁻¹,13300 ± 3330 M⁻¹ s⁻¹
B3,,,,2933 ± 380 µM,0.233 ± 0.0167 s⁻¹,83.3 ± 16.7 M⁻¹ s⁻¹,,,
B4,4085 ± 227 µM,0.417 ± 0.0167 s⁻¹,104 ± 8 M⁻¹ s⁻¹,133 ± 10 µM,1.58 ± 0.1 s⁻¹,12000 ± 1120 M⁻¹ s⁻¹,2122 ± 88 µM,3.9 ± 0.25 s⁻¹,1830 ± 133 M⁻¹ s⁻¹
